Measurements: patent publication US20100331255A1 (WAKE FOREST UNIVERSITY HEALTH SCIENCES, published 2010)

Target: T1, Rat PDI (protein disulfide isomerase) in extracted rat liver microsomal membranes (rat, UniProt P04785 20-509)
T1 construct: Endogenous protein solubilised from extracted rat liver microsomal membranes; also called 55 kDa PDI protein
T1 sequence (looked up): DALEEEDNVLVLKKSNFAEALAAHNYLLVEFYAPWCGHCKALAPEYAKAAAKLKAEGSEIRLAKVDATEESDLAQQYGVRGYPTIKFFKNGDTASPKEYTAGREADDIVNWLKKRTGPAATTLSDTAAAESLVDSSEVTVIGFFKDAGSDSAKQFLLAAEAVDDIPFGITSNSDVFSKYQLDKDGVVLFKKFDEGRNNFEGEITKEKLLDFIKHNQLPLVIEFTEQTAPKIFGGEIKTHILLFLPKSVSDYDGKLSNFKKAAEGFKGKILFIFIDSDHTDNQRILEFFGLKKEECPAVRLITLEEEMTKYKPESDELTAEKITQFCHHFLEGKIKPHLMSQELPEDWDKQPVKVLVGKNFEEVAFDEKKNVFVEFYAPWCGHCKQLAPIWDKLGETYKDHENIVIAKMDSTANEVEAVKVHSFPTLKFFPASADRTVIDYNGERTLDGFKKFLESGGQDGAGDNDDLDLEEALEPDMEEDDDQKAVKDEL
Assay: immunoprecipitation with rat VKORC1 antibodies from solubilised rat liver microsomal membranes, Western blot with PDI monoclonal antibody
Description: Lane St. has standard proteins. […] Lanes D and E show Western blots of extracted human and rat liver microsomes respectively with peptide antibodies raised against an epitope on human VKORC1 (see Experimental Procedures). […] The sequence of precipitating and first antibody is shown. Rat PDI and the heavy (HIgG) and light (LIgG) chains of mouse IgG are visible. Panel II, lanes G.Ox. and G.Red show immunoprecipitates obtained with rat VKORC1 antibodies and their Western blots developed with the mouse PDI monoclonal antibody as the first antibody and horse radish conjugated goat anti-mouse IgG as the second antibody. The sequence of precipitating and first antibody is shown. Preparation of the samples before SDS-PAGE in 8-12% CRITERION gels is described in detail in Experimental Procedures. The samples in G.Ox and G.Red were not reduced and reduced with ME respectively prior to electrophoresis.
Extracted microsomal membranes were resuspended in buffer D (250 mM sodium phosphate, 0.5 M KCl, 20% glycerol, 0.75% CHAPS, pH 7.85 containing 10 μg/ml of the Sigma Protease Inhibitor Cocktail for use with mammalian cell and tissue extracts) using a Dounce homogenizer. For blocking of free thiol groups, 20 mg NEM was added per ml of buffer D before homogenizing. The protein concentration was 6.8 mg/ml. […]

B1: Rat VKORC1 in extracted rat liver microsomal membranes (enzyme, UniProt Q6TEK4 1-161, looked up)
chain: MGTTWRSPGRLRLALCLAGLALSLYALHVKAARARNEDYRALCDVGTAISCSRVFSSRWGRGFGLVEHVLGADSILNQSNSIFGCMFYTIQLLLGCLRGRWASILLILSSLVSVAGSLYLAWILFFVLYDFCIVCITTYAINAGLMLLSFQKVPEHKVKKP
notes: Endogenous protein
B1: binds.
